This is an account of results in patent US20110262964A1 (published 2011).

Several values for one entry are separate records, joined by “and”; a condition that tells them apart may be missing. Equal entries are not always repeated.

Assay [1] addresses bt-MalE, hybrid between a peptide that can be biotinylated in vivo by E. coli and MalE (Escherichia coli).
The target of assay [2] is T1, maltose binding protein MalE from Escherichia coli (Escherichia coli, UniProt P0AEX9 27-396 = MBP). The assay can be described thus: competition Biacore in solution, buffer M2; buffer M2. In general terms: SPR reads the build-up and loss of mass on a sensor chip optically.
The target of assay [3] is T1, maltose binding protein MalE from …. The assay can be described thus: competition Biacore in solution, buffer L2; buffer L2.
Assay [4] deals with T2, bovine serum albumin (bovine, UniProt P02769 25-607).
T2 construct: also called BSA
T2 sequence (P02769 25-607 limits assumed): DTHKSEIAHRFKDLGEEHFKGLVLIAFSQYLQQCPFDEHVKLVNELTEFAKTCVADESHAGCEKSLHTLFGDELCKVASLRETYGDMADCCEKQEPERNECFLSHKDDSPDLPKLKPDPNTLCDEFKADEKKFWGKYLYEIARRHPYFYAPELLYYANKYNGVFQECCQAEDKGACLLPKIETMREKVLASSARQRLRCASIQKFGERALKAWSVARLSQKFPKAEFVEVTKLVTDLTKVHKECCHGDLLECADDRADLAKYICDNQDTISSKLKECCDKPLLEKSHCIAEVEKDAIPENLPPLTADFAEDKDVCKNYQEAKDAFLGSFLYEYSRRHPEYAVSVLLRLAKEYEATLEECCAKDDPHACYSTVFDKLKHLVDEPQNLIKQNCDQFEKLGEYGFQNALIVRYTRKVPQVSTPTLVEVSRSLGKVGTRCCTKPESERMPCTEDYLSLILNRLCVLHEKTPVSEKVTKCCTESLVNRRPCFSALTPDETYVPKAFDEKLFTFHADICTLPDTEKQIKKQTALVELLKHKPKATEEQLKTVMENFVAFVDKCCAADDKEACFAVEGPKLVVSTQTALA
The assay can be described thus: fluorescence titration of 0.3 µM DarpOff7(N45ANBD) by BSA, 25 °C, buffer M1.

For assay [5], the target named is T1, maltose binding protein MalE from …. Briefly: ΔG(wt)-ΔG(mut) from Kd by competition Biacore (reference itself).

B1: DarpOff7(wt) (designed binder)
chain: MRGSHHHHHHGSDLGRKLLEAARAGQDDEVRILMANGADVNAADNTGTTPLHLAAYSGHLEIVEVLLKHGADVDASDVFGYTPLHLAAYWGHLEIVEVLLKNGADVNAMDSDGMTPLHLAAKWGYLEIVEVLLKHGADVNAQDKFGKTAFDISIDNGNEDLAEILQKLN
Regarding B1, in assay [1], the koff (usually a measure of how fast the partners let go of each other) is 0.0051 s⁻¹ and 0.0062 s⁻¹ and 0.0061 s⁻¹; the on-rate (kon) (commonly the second-order rate constant of association) is 660000 M⁻¹ s⁻¹ and 250000 M⁻¹ s⁻¹ and 550000 M⁻¹ s⁻¹. In addition, in assay [2], the Kd (as a rule, the free concentration of one partner at which half of the binding sites on the other are occupied at equilibrium, for simple one-to-one binding) was 5.6 nM. The Kd in assay [3] came to 11 nM.

B2: DarpOff7(N45ANBD) (designed binder)
chain: MRGSHHHHHHGSDLGRKLLEAARAGQDDEVRILMANGADVNAADCTGTTPLHLAAYSGHLEIVEVLLKHGADVDASDVFGYTPLHLAAYWGHLEIVEVLLKNGADVNAMDSDGMTPLHLAAKWGYLEIVEVLLKHGADVNAQDKFGKTAFDISIDNGNEDLAEILQKLN
notes: also called conjugate at position Asn45; Asn45
Turning to B2, the binding result in assay [4] was “no binding (tested: 2.4 µM)”.

B3: DarpMbp3-16(wt) (designed binder)
chain: MRGSHHHHHHGSDLGKKLLEAAHAGQDDEVRILMANGADVNAMDNFGVTPLHLAAYWGHFEIVEVLLKYGADVNASDATGDTPLHLAAKWGYLGIVEVLLKYGADVNAQDKFGKTAFDISIDNGNEDLAEILQKLN
The molecule B3 registered a ΔΔG in assay [5] of 0 kcal/mol.
